A word on the pIC50: it is −log10 of the IC50, conventionally taken in molar units. Lower therefore signals a high IC50.

For 11 sequences, IC50 results are on record in the Immune Epitope Database (IEDB).

pIC50: −log10 of the molar value.

The target in the assay is HLA-A*02:01. The assay is described as follows: IEDB peptide-MHC binding, cellular MHC/competitive/fluorescence; ≥ and ≤ were set here for values at or beyond the usual limits of such assays. As to conditions: source organism: Human papillomavirus 16.

Regarding EDLLMGTLGIV, the pIC50 is 4.85.

Sequence ELQTTIHDI had a negative-log IC50 (pIC50) of 4.43.

In turn, EYMLDLQPET showed a pIC50 of 4.34.

The sequence IRTLEDLLMGT had a pIC50 of 4.50.

Regarding MLDLQPET, the pIC50 is 4.27.

The sequence RTLEDLLMGT gave a negative logarithm of the IC50 (pIC50) of 4.17.

In the case of RTLEDLLMGTL, the pIC50 was 5.57.

As to TLEDLLMGT, the pIC50 is 4.19.

Consider TLHEYMLDLQP, for which the negative logarithm of the IC50 (pIC50) was 4.71.

Sequence YMLDLQPE had a negative-log IC50 (pIC50) of 5.09.

For the sequence YMLDLQPETTD, the pIC50 is 5.63.
